T1: Angiopoietin-2 binding to Tie-2 (Homo sapiens, UniProt O15123)
T1 construct: purchased R&D Systems, Inc. BT623 (Angiopoietin-2, biotinylated); 313-TI-100 (Tie-2/Fc)
T1 sequence (O15123 19-496): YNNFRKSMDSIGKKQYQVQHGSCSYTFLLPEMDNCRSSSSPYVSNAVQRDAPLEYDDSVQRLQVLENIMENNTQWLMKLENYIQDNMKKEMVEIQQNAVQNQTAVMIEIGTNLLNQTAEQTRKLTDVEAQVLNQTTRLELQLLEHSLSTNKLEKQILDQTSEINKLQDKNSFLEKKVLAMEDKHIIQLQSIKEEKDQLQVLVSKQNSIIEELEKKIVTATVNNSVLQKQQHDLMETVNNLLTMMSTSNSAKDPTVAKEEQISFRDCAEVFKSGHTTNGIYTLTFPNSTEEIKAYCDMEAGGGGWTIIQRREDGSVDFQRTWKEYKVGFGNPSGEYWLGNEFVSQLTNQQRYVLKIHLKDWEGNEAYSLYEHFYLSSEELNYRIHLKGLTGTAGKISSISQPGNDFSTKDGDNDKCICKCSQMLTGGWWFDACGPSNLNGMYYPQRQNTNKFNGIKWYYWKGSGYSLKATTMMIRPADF


Target: T1, Angiopoietin-2 binding to Tie-2
Test: Competitive binding assay (modified ELISA): inhibition of Angiopoietin-2 binding to Tie-2
Details: for EC50: potency, competitive binding of Angiopoietin-2 to Tie-2, purified mAb; for Efficacy*: ratio of bound Angiopoietin-2 with mAb (30 μg/ml) versus without mAb
Procedure: As discussed above, Angiopoietin-2 exerts its biological effect by binding to the Tie-2 receptor. Monoclonal antibodies that inhibited Angiopoietin-2/Tie-2 binding were identified by a competitive binding assay using a modified ELISA. The mAb used were products of micro-purification from 50 ml of exhaustive supernatants of the hybridoma pools that were specific for Angiopoietin-2 (see above). 96-well Nunc Immplates™ were coated with 100 μl of recombinant human Tie-2/Fc fusion protein (R&D Systems, Inc., Cat. No. 313-TI-100) at 4 μg/ml by incubating overnight at 4° C. The plates were washed four times using Phosphate Buffer Saline (PBS) with a Skan™ Washer 300 station (SKATRON). The wells were blocked by 100 μl of ABX-blocking buffer (0.5% BSA, 0.1% Tween, 0.01% Thimerosal in PBS) for 1 hour.
Biotinylated recombinant human Angiopoietin-2 (R&D Systems, Inc. Cat. No. […] The plates were incubated at room temperature for two hours before the unbound molecules were washed off. Bound biotinylated Angiopoietin-2 was then detected using 100 μl/well of Streptavidin-HRP conjugate at 1:200 by incubating at room temperature for half an hour. After washing twice, the bound Streptavidin was detected by HRP substrate (R&D Systems, Cat. No. DY998). The plates were incubated for 30 minutes before 450 stop solution (100 μl/well, BioFX, Cat# BSTP-0100-01) was added to terminate the reaction. The light absorbance at 450 nm was determined by a Spectramax Plus reader.
Soluble recombinant Tie-2/Fc fusion protein at 10-fold molar excess to Angiopoietin-2 was used as a positive control. At this concentration, Tie-2/Fc inhibited binding of Angiopoietin-2 to immobilized Tie-2 by 80%.
To quantitate the inhibitory activities of the mAb on Angiopoietin-2 binding to Tie-2, the titer was determined for purified mAbs from the top candidates using a competitive binding assay. Each concentration of the mAb was tested in duplicate. The concentration-response relationship was found by curve fitting using Graphpad Prism™ graphic software (non-linear, Sigmoid curve). The maximal inhibition (efficacy) and IC50 (potency) were calculated by the software.

Row | Molecule | EC50 [µg/mL] | Efficacy* | inhibition of binding of Angiopoietin-2 to immobilized Tie-2 (positive control at 10-fold molar excess to Angiopoietin-2) [%]
1 | mAb 3.3.2: fully human anti-Angiopoietin-2 monoclonal antibody, variable regions SEQ ID NO: 1-4 (antibody, listed as Homo Sapiens, V domains shown) VH: EVQLVESGGGLVQPGGSLRLSCAVSGFTFSSYWMSWVRQAPGKGLEWVANIKQDGSEKYYVDSVKGRFTISRDNAKNSLYLQMNSLRAEDTAVYYCARDQGIAVAGPFDYWGQGTLVTVSSA VL: EIVMTQSPATLSVSPGERATLSCRASQTVSSDLAWYQQKPGQAPRLLIYGASIRATGIPARFSGSGSGTEFTLTISSLQSEDFAVYSCQQYYNWWTFGQGTKVEIKR | 0.1684 | 0.3881 | –
2 | mAb 5.16.3: fully human anti-Angiopoietin-2 monoclonal antibody, variable regions SEQ ID NO: 13-16 (antibody, listed as Homo sapiens, listed as Homo Sapiens, V domains shown) VH: QVQLVQSGAEVKKPGASVKVSCKASGYTFTGFYMYWVRQAPGQGLEWMGWINPNSSGTNHAQKFQGRVTMTRDTSISTAYMELSRLRSDDTAVYYCARDQDIATAGPFDYWGQGTLVTVSS VL: EIVMTQSPATLSVSPGERATLSCRASQSVSSNLAWYQQKPGQAPRLLIFGASTRATGIPARFSGSGSGTEFTLTISSLQSEDFAVYYCQQYNNWWTFGRGTKVEIKR | 0.08532 | 0.3279 | –
3 | mAb 3.31.2: fully human anti-Angiopoietin-2 monoclonal antibody, variable regions SEQ ID NO: 9-12 (antibody, listed as Homo sapiens, V domains shown) VH: EVQLVESGGGLVQPGGSLRLSCAASGFTFSSYWMSWVRQAPGKGLEWVANIKQDGSDKYYVDSVKGRFTISRDNAKNSLYLRMNSLRAEDTAVFYCARDMGSGWFDYWGQGTLVTVSSA VL: EVVMTQSPATLSVSPGERATLSCRASQSVGSNLAWYQQKPGQAPRLLIYGASTRATGIPARFSGSGSGTEFTLTISSLQSEDFAVYCCQQYNHWWTFGQGTKVEIKR | 0.04169 | 0.3751 | –
4 | Tie-2/Fc: soluble recombinant human Tie-2/Fc fusion protein (R&D Systems), positive control (protein, left off: a dimerising Fc or GST, soluble recombinant human Tie-2/Fc fusion protein (R&D Systems), positive control) AMDLILINSLPLVSDAETSLTCIASGWRPHEPITIGRDFEALMNQHQDPLEVTQDVTREWAKKVVWKREKASKINGAYFCEGRVRGEAIRIRTMKMRQQASFLPATLTMTVDKGDNVNISFKKVLIKEEDAVIYKNGSFIHSVPRHEVPDILEVHLPHAQPQDAGVYSARYIGGNLFTSAFTRLIVRRCEAQKWGPECNHLCTACMNNGVCHEDTGECICPPGFMGRTCEKACELHTFGRTCKERCSGQEGCKSYVFCLPDPYGCSCATGWKGLQCNEACHPGFYGPDCKLRCSCNNGEMCDRFQGCLCSPGWQGLQCEREGIQRMTPKIVDLPDHIEVNSGKFNPICKASGWPLPTNEEMTLVKPDGTVLHPKDFNHTDHFSVAIFTIHRILPPDSGVWVCSVNTVAGMVEKPFNISVKVLPKPLNAPNVIDTGHNFAVINISSEPYFGDGPIKSKKLLYKPVNHYEAWQHIQVTNEIVTLNYLEPRTEYELCVQLVRRGEGGEGHPGPVRRFTTASIGLPPPRGLNLLPKSQTTLNLTWQPIFPSSEDDFYVEVERRSVQKSDQQNIKVPGNLTSVLLNNLHPREQYVVRARVNTKAQGEWSEDLTAWTLSDILPPQPENIKISNITHSSAVISWTILDGYSISSITIRYKVQGKNEDQHVDVKIKNATITQYQLKGLEPETAYQVDIFAENNIGSSNPAFSHELVTLPESQAPADLGGGK | – | – | 80

The next lines start with the values.

Row | EC50 [µg/mL] | Efficacy* | inhibition of binding of Angiopoietin-2 to immobilized Tie-2 (positive control at 10-fold molar excess to Angiopoietin-2) [%] | Molecule
5 | 2.698 | 0.3892 | – | mAb 5.28.1: fully human anti-Angiopoietin-2 monoclonal antibody, variable regions SEQ ID NO: 17-20 (antibody, listed as Homo sapiens, listed as Homo Sapiens, V domains shown) VH: EVQLVESGGIVVQPGGSLRLSCAASGFTFDDYTMHWVRQTPGKGLEWVSLISWDGGSTYYADSVKGRFTISRDNSKNSLYLQMNSLRTEDTALYYCAKDIDIAVAGTGFDHWGQGTLVTVSSA VL: EIVMTQSPATLSVSPGERATLSCRASQSVTSNLAWYQQKPGQAPRLLIYGALIRATGIPARFSGSGSGTEFTLTISSLQSEDFAVYYCQQYNNWPFTFGPGTKVDIKR
6 | 0.1557 | 0.4032 | – | mAb 5.88.3: fully human anti-Angiopoietin-2 monoclonal antibody, variable regions SEQ ID NO: 29-32 (antibody, listed as Homo Sapiens, V domains shown) VH: EVQMVESGGGLVQPGGSLRLSCAASGFTLRSYWMSWVRQAPGKGLEWVANIKEDGSEKYHVDSVKGRFTISRDNAENSLFLQMSSLRAEDTAVYYCARDMEASAGLFDYWGQGTLVTVSSA VL: EIVMTQSPATLSVSPGERAILSCRASQSISSNLAWYQQKPGQAPRLLIYGASTRATGIPARFSGSGSGTEFTLTISSLQSEDFAVYYCQQYNYWWTFGQGTKVEIKR
7 | 0.1331 | 0.3844 | – | mAb 5.86.1: fully human anti-Angiopoietin-2 monoclonal antibody, variable regions SEQ ID NO: 25-28 (antibody, listed as Homo Sapiens, listed as Homo sapiens, V domains shown) VH: QVQLVQSGAEVKKPGASVKVSCKASGYTFTGYHMYWVRQAPGQGLEWLGWINPNSGGTNYAQKFQGRVTMTRDTSISTAYMELSRLRSDDTAVYYCVRDQGIAAAGPFDYWCQGTLVTVSSA VL: DIRMTQSPSSLSASVGDRVTITCRASQRISTYLNWYQQKPGKAPKFLIYAASSLQSGVPSRFSGSGSGTDFTLTISSLQPEDFATYYCQQSYTTPFTFGPGTKVDIKR
